The DeepSol protein solubility set

experiment: soluble on expression in E. coli; label from the status in PepcDB or PDB records

Sequence | soluble on expression in E. coli
MSSTSRIMRPDDANIVGNVHGGTILKMIEEAGCIIGTRHCNTQSGDRCLAALARVERTDFLHPMFIGEVAHVSAEITYTSKHSVEVQVNVLAENIVTGAKKVTNKATLWYVPLSLQNVDKIIEVPPIEYSSPEREEAGKKRYEAQKLERLEDKVRNGEIIMSVSLPEPYTVVCSQSSLIHLVGPSDCTLHGFVHGGVTMKLMDEVAGIVAARHCKTNIVTASVDAINFHRKIKKGCVITVSGRMTFTSNKSMEI | soluble
MSTAEFAQLLENSILSPDQNIRLTSETQLKKLSNDNFLQFAGLSSQVLIDENTKLEGRILAALTLKNELVSKDSVKTQQFAQRWITQVSPEAKNQIKTNALTALVSIEPRIANAAAQLIAAIADIELPHGAWPELMKIMVDNTGAEQPENVKRASLLALGYMCESADPQSQALVSSSNNILIAIVQGAQSTETSKAVRLAALNALADSLIFIKNNMEREGERNYLMQVVCEATQAEDIEVQAAAFGCLCKIMSKYYTFMKPYMEQALYALTIATMKSPNDKVASMTVEFWSTICEEEIDIAYELAQFPQSPLQSYNFALSSIKDVVPNLLNLLTRQNEDPEDDDWNVSMSAGACLQLFAQNCGNHILEPVLEFVEQNITADNWRNREAAVMAFGSIMDGPDKVQRTYYVHQALPSILNLMNDQSLQVKETTAWCIGRIADSVAESIDPQQHLPGVVQACLIGLQDHPKVATNCSWTIINLVEQLAEATPSPIYNFYPALVDGLIGAANRIDNEFNARASAFSALTTMVEYATDTVAETSASISTFVMDKLGQTMSVDENQLTLEDAQSLQELQSNILTVLAAVIRKSPSSVEPVADMLMGLFFRLLEKKDSAFIEDDVFYAISALAASLGKGFEKYLETFSPYLLKALNQVDSPVSITAVGFIADISNSLEEDFRRYSDAMMNVLAQMISNPNARRELKPAVLSVFGDIASNIGADFIPYLNDIMALCVAAQNTKPENGTLEALDYQIKVLEAVLDAYVGIVAGLHDKPEALFPYVGTIFQFIAQVAEDPQLYSEDATSRAAVGLIGDIAAMFPDGSIKQFYGQDWVIDYIKRTRSGQLFSQATKDTARWAREQQKRQLSL | soluble
MSTCTLRFKNDWLKIFTCPVPSSDFLSFVGVATIDAPQHAVLSLLYDIESATEWVWKTREMRVLQELADDNEGRVVYQVVSAPWPVSDREIISRSTAYKDPETGEVFIKIESLPDFIPETSNCVRVRKLEGAWNILPLSENSCRVVFRLHIEPAGEIPSWLANIAVIDTPYHTLNNMRDMVKREKYKNPLEHHHHHH | not soluble
MSTDNLLQPKLIEATLGDYPVIQNMARFYVYDMSRYCGFISEEWTCPPDGLYESYDFKIYFTDPERKAFLIQIDNELAGFALLNKFGIQAVDWSMGEFFILAKFQGKGIGQSVAHQLWRTHPGEWEISVIPENIPALSFWRQAVMTYTLGRYKEQIKTVNYDIHQTQRIILSFNTQKQNKSCHSIPKKPITIDFVDNIPKSLEKKMTEDLIAYERTHGIDVNYKRFSIVLSEEGVTCGVINAFTAFAEIYIDDIWVDKAYRGKGYGKKLLQTLENHFKGQGFNNINLCTSAFQAPEFYRKCGYTAEFTRINQANPKLSKTFFVKFFDDENQTQGLF | soluble
MSTDSTNYAAKHESLGKSVQRELQKTQSQLRQVVRKMQSKYNINNKARVAEISLLRQMQSQFSRKYVNKNLGNSNTLAQQGSYTKKDGTTAQAGDLLLAADNLHSRLTDKMLSISHVRENTISPFVLGCLKQITINAYHYLK | not soluble
MSTFRLALIQLQVSSIKSDNLTRACSLVREAAKQGANIVSLPECFNSPYGTTYFPDYAEKIPGESTQKLSEVAKESSIYLIGGSIPEEDAGKLYNTCSVFGPDGSLLVKHRKIHLFDIDVPGKITFQESKTLSPGDSFSTFDTPYCKVGLGICYDMRFAELAQIYAQRGCQLLVYPGAFNLTTGPAHWELLQRARAVDNQVYVATASPARDDKASYVAWGHSTVVDPWGQVLTKAGTEETILYSDIDLKKLAEIRQQIPILKQKRADLYTVESKKP | soluble
MSTFSFIIVNNEQVRIHDIQGKSHMSPYNGKKVNNVEGVVTALDKNGFYIEDNQPDNDPATSEGMYVYKKDANVAVGDLIQVDGVVEEYVGPGYAERFETDLTTTEIKASRVVVIAKDQSLPAPIVLGENGVKIPDQIIDNDAFGLFDPNEDAIDFYESIEGMRVTMPTPKVIAPQKNGNLYVTVKNGGDKIVTQYGTPLLDENQLNPERLSVKVPRDYVAKVGDTFTGDITGVVGYDYGSFRISPITELPAVVDGGFKQVGANIQPRLDKLTVATYNIENFSANKKETTDEKVKALAYSIKYNLKMPDIIGVEEMQDNNGLEHHHHHH | soluble
MSTKTMKEKAVELLQKCEVVTLASVNKEGYPRPVPMSKIAAEGISTIWMSTGADSLKTIDFLSNPKAGLCFQEKGDSVALMGEVEVVTDEKLKQELWQDWFIEHFPGGPTDPGYVLLKFTANHATYWIEGTFIHKKLD | soluble
MSTLQAAAHGRIVQLSRIRKEIADLAKNKRRFIKDFRKIEKCKDIFQFKIIGDGVLYKNMIFTLTLDVNVEYPFKPPYLKFCHNVYHPNVDPVTCELCSPMLLQENWKPETTMEDVLLNLIVLLNEPDLSRPVNIDAAHDYIHNKVEFVKKSTELAKKWN | not soluble
MSTPTLSPSTEKLIPIIGLSVSGTFSPRPIATTAHSVVFKVDSQLYRREVIVKIVDRKSIPANVAEKFFPRELEITMKVRHPHIARCLAITRPAPTKFVIISDYYERGTLLEWILQKKRLKEHPLAATLFRQLIEAINYLHKRGIVHRDVKLENILIDGNGDIKLIDFGFARHIERRERSRSFCGTQPYTCPQITKYRPYEAYAADYYACGIVLFTMVTGKWPNMTENPNIYPEGYPSRSCRKLVSSLLDGNEMSRAGYDECVNSEWMGVHPVWMFANHAYFYEEVRGEDPNSSNCEMSEI | not soluble
MSTRKLNKVMVQPVNLIFRYLQNRTRVQIWLYEDVTHRLEGYIIGFDEFMNVVFDEAEEVNMKTKGRNKIGRILLKGDNITLIHAAQQEA | not soluble
MSTTVGRPSNEIASCQVCHSTERTRLYFGITSCAACAAFFRRSDGIRYMCTATNSCTISHDMKFFCRACRYTSCIRAGMVMSRNALATARKAPNNIIPREPTPRSVPSLEEVDGFSKILNISNGDLLKYYVKEVESIMAQQRYGEQKNALQVKSVNDLMIVTAYQEGTSLESCFNCPGVDILYNEDVEVVHKYFKFSNTWIDSLLAPTSPLDPSCNERISEFIHLLKSTLGSTLAQLNLNIIEYAAFKSFCIWKLVYHKTSISMKIVAQEHYEGVTSALRKYYRKNIKMSELEMATRIGDITLQIITVSNLYNDMARMYHQTGLQL | not soluble
MSVERSLEAWEEVQRHGQDLADRLAQGFNGLIQINPPSFPSKLFDLEFSSQHFGIRDSRFSIHQPINGVSAILDIGNKIGQAGVDFGSGLNVMVQQFFRRLPVPFRHDENVFVSTERDTVTRSHRAYVDTKENSAFSKTDTASSGTVYEEKVTEFDLRTIGLHRRAKGTVELSSSYETRTSSMEHSLAARGDLWRVEASTSNSPVRDDSSSLFLLQLGPLLFLRDSTLLLPVHLSKQHLLWYGYDRKKGMHSLCPALWSKHRRWLMMSMLCLNPLDCSFVDLQFPNGQLTYVSGEGLTTSVFVPLCGGLLQAQGQYPGDMRFSFSCKSKQGTRITPMINWPDKSLALGVSQALAWRRSGVMLKPAIQLSVCSTFGGSNPGIKTEVIQSLNDNINMICGCAFTAHPSTFASVSFGRSKWNGNIGRTGIVVRADTPLPNVARPSFSIQINNAFEF | soluble
MSVKTWRKIAIDIIRDFDHNIMPLFGNPKASETISISPSGDETKVVDKVAENIIISKFKDLGVNVVSEEIGRIDQGSDYTVVVDPLDGSYNFINGIPFFAVSVAIFHEKDPIYAFIYEPIVERLYEGIPGKGSYLNGEKIKVRELAEKPSISFYTKGKGTKIIDKVKRTRTLGAIALELAYLARGALDAVVDIRNYLRPTDIAAGVVIAREAGAIVKDLDGKDVEITFSATEKVNIIAANNEELLETILRSIEK | soluble
MSVLAVQAQRTSIGITAGTGTAWLSDTDRDVVFNPVWNAGATLVYSSETHWGFGADIKYSREGVKFTYAGTGNYNGQTMTTRVGSDFIRIPLRAIYFFNKNENAFRPNVSLGPSFGILTGGEIKTYDGDKNVIGTSKVSDSFRDVDFGLQGTAGASIMLSDGLWFSADIVYYQGLNKQNKNGTNTMLNSNVGINLGLRIGVGR | not soluble
MSVQNGFTAKIIRFVPHFVALRLSWTHNDLKAEGLEQFVEECLPAIRENNPQVKYFLQRSYTTCDPFVVGEYSWLRHRKKRVNWKSKEQVLSMIEEMSIGGDYREGYKRGVNRRLPRGQELWDTETMGHDVFHVTSKWKADIPEEDELPITAKTHPNFTYRKY | not soluble
MSVSPVQPDPSVIGGVPKAPFVLKPNLARLFNDRASRFEALAQGSHLAPYLNFLAGITRIQSELVSALPPPEPVPADRVERARANAMPPIDRAAMGGSPDCREVLQQFFEKAEALEKPAAAAEALAQVRTADEEMLTWMIGNVMADDLPVESLAHHLYVAAAMQIQAARLAAGLDGSRLVPIRVGVCPACGGRPVASMVIGFHGAEGARYASCSCCATMWNEVRVKCLACGSTKGIGYQAVETGDEEATVKAEVCDTCNSWMKILYQNKNPSLDVVADDVASLGLDLLMKDTEYKRAGFDPFLMGY | not soluble
MSVTVFIPGDSAALAVGANRVAEAIAREAASRNLDVQIVRNGSRGMLWLEVLVEVRTEHGRIAYGPVKAADVTSLFDADFLDGGDHRLCLGPTKDIPFLKNQTRLTFARCGVTDPLSLEDYRNYQGMKGLEKAVTMEPLAIVAQVTESGLRGRGGAGFPTGIKWKTVADARADQKYIVCNADEGDSGTFADRMIMEGDPFVLIEGMAIAGLAVGATKGFIYTRSEYPYAIKVMEKAIEIARREGILGSSVLGSGRAFDMEVRMGAGAYVCGEETSLLNSLEGKRGTVRAKPPLPALQGLFGKPTVVNNVISLASIPVIMDRGAAFYRDFGVGRSHGTIPIQLAGNIRYGGLYETAFGLTLGQLVNDIGGGTITGRPVKAVQVGGPLGAYFPVSLFDTIFDYEAFTAAGGLIGHAGIVVFDDTADMLHQARFALEFCAVESCGKCTPCRIGSTRGVETVDKIALGIEREKNTALLEDLCETMKFGSLCALGGFTPYPVMSALRHFPQDFAPIPRVEAAEAAALEHHHHHH | not soluble
MSVVLGENELVIRGCILYEVLNKKPIQESYENFCRNVGNDVMSYNDFDFWFYRFYNGNHDLHYDRSADPASPLLSNMPLNIIDEVLNRMEILNLLVLMKVSRNFRKVVQNMKMVFDCIEVDFDEHLAITYNSRHKIKYRPNDTAQYSPFRQEPTCTCGRRIRTSDEDNRKEFFVTDEDYIELGVKDLKLIMENQNVQLKKFQFSNGSNQDTQKKFIDRAEIAFKSAKSSTRTVEAHYNSLAEIAQLLPIFHAGKLEEINFKQGARTDGYEQLVGLEQWKNARKFDGFWSLNVPIEHCLHFECFKDHFVRFKEEDAMKLRYMLDRSTNFGYAEITIDPMNVSLLKRAFDVNNDNKFEFVYQSPDNGSFEVHCALRVLYITKSGYKFKYNNKSASTFYKPPPIPAPPALFLRDYQFFDPRPRMPTDRSRYRPF | not soluble
MSWFLLNRNLTLLEPYDWKLSRTVLRGERGSNASDLPGKAIAKEGMADYIRYLFKTVRKFYGEAVVVTQEVDDIISSPIVKESIVNNSDCKILLDQRKYLNKFSQIQSLLGLTDKEKAQILSVNMSNDPRRKYKEVWFGLGGVQSTVYATEVSLEEYLCYSTEESEKVELEGLTKELGGNIELAIRRLAEKKRNQNNEIP | not soluble
MSWWKRIFSRSESSTTESNSASSLPAADLDDDLLVEVKNLVAITGPKMPYELARLLKISHARATRLAAAANAQNPTPSRARTSDAQAQQPAAASPKPPAEPVAAEPKKKRAKKATPVEAGLPPLTGKITGGHACAFDVVGESYYQPALRRLRNGRHMATDNDFVADIVAEPDNPHDPNACAVYIEGFKVGYLPRDAAADFQQQVADMGVTGTWRLQTKAKLSGGWGDRPMVGVLLSLPKSLEHHHHHH | not soluble
